The values below come from patent US20170334958A1.

This experiment deals with tumor necrosis factor-α (TNF-α) (human) (UniProt P01375). Briefly: 35S free protein + biotin-TNF-α in solution, biotin capture membrane, phosphorimaging.
Chain of tumor necrosis factor-α (TNF-α) (human) (P01375 77-233 limits assumed): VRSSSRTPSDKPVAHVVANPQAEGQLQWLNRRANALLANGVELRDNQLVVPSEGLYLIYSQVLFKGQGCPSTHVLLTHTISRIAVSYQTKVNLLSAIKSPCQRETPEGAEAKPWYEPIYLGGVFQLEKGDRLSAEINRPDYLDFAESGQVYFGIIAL

B1: T14.06 (designed binder)
chain: VSDVPRDLEVVAATPTSLLISWTRTNASTRYYRITYGETGGNSPVQEFTVPNFWWTATISGLKPGVDYTITVYAVTSPDETSAYSEPISINYRT
In the case of B1, the Kd turned out to be 1.4 nM.
